Laboratory results reported in patent US20210054094A1 (Hoffmann-La Roche, published 2021).

biological target: human GPRC5D (human, UniProt Q9NZD1 1-345); test: cell-based or functional assay
Sequence (Q9NZD1 whole entry): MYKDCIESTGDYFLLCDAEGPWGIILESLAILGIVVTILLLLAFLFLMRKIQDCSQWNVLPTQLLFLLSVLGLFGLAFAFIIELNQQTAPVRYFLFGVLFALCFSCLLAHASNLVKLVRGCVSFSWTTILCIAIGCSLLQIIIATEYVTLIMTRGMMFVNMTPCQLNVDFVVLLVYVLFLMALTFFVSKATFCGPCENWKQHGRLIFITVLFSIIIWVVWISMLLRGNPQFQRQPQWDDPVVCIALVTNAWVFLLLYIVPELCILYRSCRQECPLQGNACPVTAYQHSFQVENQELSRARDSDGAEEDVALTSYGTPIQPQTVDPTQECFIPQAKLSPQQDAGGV

Binder | CAR-J2 EC50 (PGLALA-CAR-J activation, L363 target cells) [ng/mL]
P1AE5714 (antibody, V domains shown) VH: ELQLLESGGGLVQPGGSLRLSCAASGFTFSKYAMAWVRQAPGKGLEWVASISTGGVNTYYRDSVKARFTISRDNAKNTLYLQMNSLRAEDTAVYYCATHTGDYFDYWGQGTMVTVSS VL: DIVMTQSPDSLAVSLGERATINCRASQSVSISGINLMNWYQQKPGQQPKLLIYHASILASGVPDRFSGSGSGTDFTLTISSLQAEDVAVYYCQQTRESPLTFGQGTRLEIK | 5.5
P1AE5709 (antibody, V domains shown) VH: EVQLLESGGGLVQPGGSLRLSCAASGFTFSKYAMAWVRQAPGKGLEWVASISTGGVNTYYRDSVKARFTISRDNSKNTLYLQMNSLRAEDTAVYYCATHTGDYFDYWGQGTMVTVSS VL: EIVLTQSPGTLSLSPGERATLSCRASQSVSISGINLMNWYQQKPGQQPRLLIYHASILASGIPDRFSGSGSGTDFTLTISRLEPEDFAVYYCQQTRESPLTFGQGTRLEIK | 59.4
P1AE5712 (antibody, V domains shown) VH: EVQLLESGGGLVQPGGSLRLSCAASGFTFSKYAMAWVRQAPGKGLEWVASISTGGVNTYYRDSVKARFTISRDNSKNTLYLQMNSLRAEDTAVYYCATHTGDYFDYWGQGTMVTVSS VL: DIQMTQSPSSLSASVGDRVTITCRASQSVSISGINLMNWYQQKPGKQPKLLIYHASILASGVPSRFSGSGSGTDFTLTISSLQPEDFATYYCQQTRESPLTFGQGTRLEIK | 16.1
P1AE5721 (antibody, V domains shown) VH: EVQLLESGGGLVQPGGSLRLSCAASGFTFSKYAMAWVRQAPGKGLEWVASISTGGVNTYYADSVKGRFTISRDNSKNTLYLQMNSLRAEDTAVYYCATHTGDYFDYWGQGTMVTVSS VL: DIVMTQSPDSLAVSLGERATINCKSSQSVSISGINLMNWYQQKPGQQPKLLIYHASILASGVPDRFSGSGSGTDFTLTISSLQAEDVAVYYCQQTRESPLTFGQGTRLEIK | 25
P1AE5716 (antibody, V domains shown) VH: ELQLLESGGGLVQPGGSLRLSCAASGFTFSKYAMAWVRQAPGKGLEWVASISTGGVNTYYRDSVKARFTISRDNAKNTLYLQMNSLRAEDTAVYYCATHTGDYFDYWGQGTMVTVSS VL: EIVLTQSPGTLSLSPGERATLSCRASQSVSISGINLMNWYQQKPGQQPRLLIYHASILASGIPDRFSGSGSGTDFTLTISRLEPEDFAVYYCQQTRESPLTFGQGTRLEIK | 3.3
P1AE5729 (antibody, V domains shown) VH: ELQLLESGGGLVQPGGSLRLSCAASGFTFSKYAMAWVRQAPGKGLEWVASISTGGVNTYYADSVKGRFTISRDNAKNTLYLQMNSLRAEDTAVYYCATHTGDYFDYWGQGTMVTVSS VL: EIVLTQSPGTLSLSPGERATLSCRASQSVSISGINLMNWYQQKPGQQPKLLIYHASILASGIPDRFSGSGSGTDFTLTISRLEPEDFAVYYCQQTRESPLTFGQGTRLEIK | 61.3
P1AE5715 (antibody, V domains shown) VH: ELQLLESGGGLVQPGGSLRLSCAASGFTFSKYAMAWVRQAPGKGLEWVASISTGGVNTYYRDSVKARFTISRDNAKNTLYLQMNSLRAEDTAVYYCATHTGDYFDYWGQGTMVTVSS VL: DIVMTQSPDSLAVSLGERATINCKSSQSVSISGINLMNWYQQKPGQQPKLLIYHASILASGVPDRFSGSGSGTDFTLTISSLQAEDVAVYYCQQTRESPLTFGQGTRLEIK | 3.6
P1AE5717 (antibody, V domains shown) VH: ELQLLESGGGLVQPGGSLRLSCAASGFTFSKYAMAWVRQAPGKGLEWVASISTGGVNTYYRDSVKARFTISRDNAKNTLYLQMNSLRAEDTAVYYCATHTGDYFDYWGQGTMVTVSS VL: EIVLTQSPGTLSLSPGERATLSCRASQSVSISGINLMNWYQQKPGQQPKLLIYHASILASGIPDRFSGSGSGTDFTLTISRLEPEDFAVYYCQQTRESPLTFGQGTRLEIK | 79.9
P1AE5722 (antibody, V domains shown) VH: EVQLLESGGGLVQPGGSLRLSCAASGFTFSKYAMAWVRQAPGKGLEWVASISTGGVNTYYADSVKGRFTISRDNSKNTLYLQMNSLRAEDTAVYYCATHTGDYFDYWGQGTMVTVSS VL: EIVLTQSPGTLSLSPGERATLSCRASQSVSISGINLMNWYQQKPGQQPRLLIYHASILASGIPDRFSGSGSGTDFTLTISRLEPEDFAVYYCQQTRESPLTFGQGTRLEIK | 4.6
P1AE5720 (antibody, V domains shown) VH: EVQLLESGGGLVQPGGSLRLSCAASGFTFSKYAMAWVRQAPGKGLEWVASISTGGVNTYYADSVKGRFTISRDNSKNTLYLQMNSLRAEDTAVYYCATHTGDYFDYWGQGTMVTVSS VL: DIVMTQSPDSLAVSLGERATINCRASQSVSISGINLMNWYQQKPGQQPKLLIYHASILASGVPDRFSGSGSGTDFTLTISSLQAEDVAVYYCQQTRESPLTFGQGTRLEIK | 6.3
P1AE5726 (antibody, V domains shown) VH: ELQLLESGGGLVQPGGSLRLSCAASGFTFSKYAMAWVRQAPGKGLEWVASISTGGVNTYYADSVKGRFTISRDNAKNTLYLQMNSLRAEDTAVYYCATHTGDYFDYWGQGTMVTVSS VL: DIVMTQSPDSLAVSLGERATINCRASQSVSISGINLMNWYQQKPGQQPKLLIYHASILASGVPDRFSGSGSGTDFTLTISSLQAEDVAVYYCQQTRESPLTFGQGTRLEIK | 37.8
P1AE5710 (antibody, V domains shown) VH: EVQLLESGGGLVQPGGSLRLSCAASGFTFSKYAMAWVRQAPGKGLEWVASISTGGVNTYYRDSVKARFTISRDNSKNTLYLQMNSLRAEDTAVYYCATHTGDYFDYWGQGTMVTVSS VL: EIVLTQSPGTLSLSPGERATLSCRASQSVSISGINLMNWYQQKPGQQPKLLIYHASILASGIPDRFSGSGSGTDFTLTISRLEPEDFAVYYCQQTRESPLTFGQGTRLEIK | 3.5
P1AE5727 (antibody, V domains shown) VH: ELQLLESGGGLVQPGGSLRLSCAASGFTFSKYAMAWVRQAPGKGLEWVASISTGGVNTYYADSVKGRFTISRDNAKNTLYLQMNSLRAEDTAVYYCATHTGDYFDYWGQGTMVTVSS VL: DIVMTQSPDSLAVSLGERATINCKSSQSVSISGINLMNWYQQKPGQQPKLLIYHASILASGVPDRFSGSGSGTDFTLTISSLQAEDVAVYYCQQTRESPLTFGQGTRLEIK | 6.3
P1AE5728 (antibody, V domains shown) VH: ELQLLESGGGLVQPGGSLRLSCAASGFTFSKYAMAWVRQAPGKGLEWVASISTGGVNTYYADSVKGRFTISRDNAKNTLYLQMNSLRAEDTAVYYCATHTGDYFDYWGQGTMVTVSS VL: EIVLTQSPGTLSLSPGERATLSCRASQSVSISGINLMNWYQQKPGQQPRLLIYHASILASGIPDRFSGSGSGTDFTLTISRLEPEDFAVYYCQQTRESPLTFGQGTRLEIK | 5.6
P1AE5723 (antibody, V domains shown) VH: EVQLLESGGGLVQPGGSLRLSCAASGFTFSKYAMAWVRQAPGKGLEWVASISTGGVNTYYADSVKGRFTISRDNSKNTLYLQMNSLRAEDTAVYYCATHTGDYFDYWGQGTMVTVSS VL: EIVLTQSPGTLSLSPGERATLSCRASQSVSISGINLMNWYQQKPGQQPKLLIYHASILASGIPDRFSGSGSGTDFTLTISRLEPEDFAVYYCQQTRESPLTFGQGTRLEIK | 3.7
